Experimental data: US20200199204A1

Tests used:
Assay in all cases: cell-based or functional assay
[1] = target: HIV-1 Env of MB539.2B7 (HIV-1)
[2] = target: HIV-1 Env of CNE3 (HIV-1)
[3] = target: HIV-1 Env of THRO.18 (HIV-1)
[4] = target: HIV-1 Env of 6535.3 (HIV-1)
[5] = target: HIV-1 Env of 3016.V5.c36 (HIV-1)
[6] = target: HIV-1 Env of TH976.17 (HIV-1)
[7] = target: HIV-1 Env of ZM233.6 (HIV-1)
[8] = target: HIV-1 Env of CAAN.A2 (HIV-1)
[9] = target: HIV-1 Env of CAP244.D3 (HIV-1)
[10] = target: HIV-1 Env of SC422.8 (HIV-1)
[11] = target: HIV-1 Env of ZM197.7 (HIV-1)
[12] = target: HIV-1 Env of QH0692.42 (HIV-1)
[13] = target: HIV-1 Env of DU422.01 (HIV-1)
[14] = target: HIV-1 Env of KER2008.12 (HIV-1)
[15] = target: HIV-1 Env of MB201 (HIV-1)
[16] = target: HIV-1 Env of UG037.8 (HIV-1)
[17] = target: HIV-1 Env of CM244.ec1 (HIV-1)
[18] = target: HIV-1 Env of Q23.17 (HIV-1)
[19] = target: HIV-1 Env of 96ZM651.02 (HIV-1)
[20] = target: HIV-1 Env of CAP210.E8 (HIV-1)
[21] = target: HIV-1 Env of REJO.67 (HIV-1)
[22] = target: HIV-1 Env of Q461.e2 (HIV-1)
[23] = target: HIV-1 Env of WITO.33 (HIV-1)
[24] = target: HIV-1 Env of 6405.v4.c34 (HIV-1)
[25] = target: HIV-1 Env of ZM53.12 (HIV-1)
[26] = target: HIV-1 Env of ZM214.15 (HIV-1)
[27] = target: HIV-1 Env of PVO.04 (HIV-1)
[28] = target: HIV-1 Env of CAP256.PI (HIV-1)
[29] = target: HIV-1 Env of 0260.v5.c36 (HIV-1)
[30] = target: HIV-1 Env of KER2018.11 (HIV-1)
[31] = target: HIV-1 Env of AC10.29 (HIV-1)
[32] = target: HIV-1 Env of RW020.2 (HIV-1)
[33] = target: HIV-1 Env of C1080.c3 (HIV-1)
[34] = target: HIV-1 Env of RHPA.7 (HIV-1)
[35] = target: HIV-1 Env of Q168.a2 (HIV-1)
[36] = target: HIV-1 Env of CAP45.G3 (HIV-1)
[37] = target: HIV-1 Env of BG505.w6m (HIV-1)
[38] = target: HIV-1 Env of ZM249.1 (HIV-1)
[39] = target: HIV-1 Env of Q259.d2.17 (HIV-1)
[40] = target: HIV-1 Env of DU172.17 (HIV-1)
[41] = target: HIV-1 Env of ZM109.4 (HIV-1)
[42] = target: HIV-1 Env of DU156.12 (HIV-1)
[43] = target: HIV-1 Env of ZM135.10a (HIV-1)
[44] = target: HIV-1 Env of Q769.d22 (HIV-1)
[45] = target: HIV-1 Env of TRO.11 (HIV-1)
[46] = target: HIV-1 Env of CAP256.SU (HIV-1)
[47] = target: HIV-1 Env of TRJO.58 (HIV-1)
[48] = target: HIV-1 Env of Q842.d12 (HIV-1)

Measured: IC50 (neutralization, TZM-bl)

CAP256-VRC26.32 (antibody)
16.8 µg/mL: [38]
0.015 µg/mL: [7]
0.032 µg/mL: [30]
17.8 µg/mL: [27]
0.284 µg/mL: [5]
0.561 µg/mL: [17]
0.004 µg/mL: [46]
0.008 µg/mL: [20]
0.011 µg/mL: [25]
0.097 µg/mL: [11]
> 50 µg/mL: all other assays above

CAP256-VRC26.33 (antibody)
0.007 µg/mL: [46]
0.622 µg/mL: [36]
0.037 µg/mL: [30]
0.004 µg/mL: [7]
1.73 µg/mL: [11]
0.015 µg/mL: [25]
0.506 µg/mL: [5]
22.5 µg/mL: [38]
0.017 µg/mL: [20]
29.5 µg/mL: [13]
0.036 µg/mL: [17]
> 50 µg/mL: all other assays above
